Here are results for ten molecules from patent publication US20160199438A1 (Eli Lilly, published 2016).

For orientation: Ki means a measure of affinity in units of concentration, obtained from inhibition or displacement. Read a low Ki as higher affinity.

Residue numbers refer to the chain shown, from its start.

Assay [1] deals with human glucose-dependent insulinotropic polypeptide receptor (human) (UniProt P48546). Put plainly: cell-based or functional assay.
Another assay has as its target T1, human GLP-2 receptor (human, UniProt O95838 1-553).
T1 sequence (looked up): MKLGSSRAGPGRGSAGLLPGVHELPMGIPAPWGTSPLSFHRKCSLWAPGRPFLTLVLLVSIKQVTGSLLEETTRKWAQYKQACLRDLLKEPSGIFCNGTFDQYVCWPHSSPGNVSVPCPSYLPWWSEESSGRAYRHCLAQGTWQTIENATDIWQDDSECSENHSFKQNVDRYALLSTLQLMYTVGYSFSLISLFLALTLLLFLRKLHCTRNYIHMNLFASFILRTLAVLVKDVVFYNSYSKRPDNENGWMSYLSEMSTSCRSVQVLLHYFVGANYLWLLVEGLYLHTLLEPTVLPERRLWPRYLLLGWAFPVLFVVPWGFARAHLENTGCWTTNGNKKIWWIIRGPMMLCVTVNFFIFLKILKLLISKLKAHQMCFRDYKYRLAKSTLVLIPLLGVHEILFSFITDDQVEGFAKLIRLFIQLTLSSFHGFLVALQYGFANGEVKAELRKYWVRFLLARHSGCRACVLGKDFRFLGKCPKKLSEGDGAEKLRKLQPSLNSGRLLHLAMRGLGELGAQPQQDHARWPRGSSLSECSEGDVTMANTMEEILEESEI
Nature of the assay: cell-based or functional assay.

Assay [2] addresses T2, human glucose-dependent insulinotropic polypeptide receptor (human, UniProt P48546 22-466).
T2 sequence (looked up): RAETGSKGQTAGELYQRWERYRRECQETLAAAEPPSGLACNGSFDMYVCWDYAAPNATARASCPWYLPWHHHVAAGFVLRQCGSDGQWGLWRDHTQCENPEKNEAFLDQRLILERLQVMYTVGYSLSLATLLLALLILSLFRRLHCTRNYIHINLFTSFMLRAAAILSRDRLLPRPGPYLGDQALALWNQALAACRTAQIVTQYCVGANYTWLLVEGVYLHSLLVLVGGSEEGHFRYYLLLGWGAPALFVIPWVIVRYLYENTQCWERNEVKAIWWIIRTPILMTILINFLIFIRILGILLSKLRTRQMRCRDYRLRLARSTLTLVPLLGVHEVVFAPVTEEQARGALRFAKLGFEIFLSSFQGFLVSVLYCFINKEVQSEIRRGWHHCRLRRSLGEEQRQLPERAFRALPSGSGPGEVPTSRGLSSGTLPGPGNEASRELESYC
Nature of the assay: cell-based or functional assay.

Assay [3] concerns the target T3, human glucagon-like peptide 1 receptor (human, UniProt P43220 24-463). Put plainly: cell-based or functional assay.
The target of assay [4] is T4, GIP receptor of GLUTag cells (murine (the cell line is stated to be …, UniProt Q0P543 19-460)).
T4 sequence (looked up): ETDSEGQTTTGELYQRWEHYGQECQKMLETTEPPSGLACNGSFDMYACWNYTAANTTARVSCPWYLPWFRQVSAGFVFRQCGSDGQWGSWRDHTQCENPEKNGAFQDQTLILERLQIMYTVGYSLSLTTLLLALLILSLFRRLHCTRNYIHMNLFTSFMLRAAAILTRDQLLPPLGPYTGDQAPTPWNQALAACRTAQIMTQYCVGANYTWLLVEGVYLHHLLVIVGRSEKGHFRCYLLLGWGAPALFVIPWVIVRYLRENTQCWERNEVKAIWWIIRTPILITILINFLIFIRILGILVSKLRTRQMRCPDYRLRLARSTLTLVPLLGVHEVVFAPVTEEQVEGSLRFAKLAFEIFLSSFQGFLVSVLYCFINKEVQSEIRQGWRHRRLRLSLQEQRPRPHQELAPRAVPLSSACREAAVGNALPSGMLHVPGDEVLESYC
Put plainly: cell-based or functional assay.

Assay [5] concerns the target T2, human glucose-dependent insulinotropic …. Nature of the assay: competition of [125I]GIP, SPA, hGIP-R CHO-S membranes; Ki by Cheng-Prusoff. Here is the method:
The compounds are serially diluted into binding buffer. Next, 10 μL diluted compound or 100% DMSO is transferred into Corning® 3632 clear bottom assay plates containing 40 μL assay binding buffer or cold GIP (NSB at 0.1 μM final). Then, 90 μL membranes (3 μg/well), 50 μL [|¹²⁵|] GIP (Perkin Elmer Life and Analytical Sciences at 0.15 nM final in reaction), and 50 μL of WGA beads (150 μg/well) is added, sealed, and mixed on a plate shaker for 1 minute. Plates are read with a MicroBeta® scintillation counter after 12 hours of settling time at room temperature.
(§1) The IC₅₀ concentration is converted to Ki using the Cheng-Prusoff equation.

Assay [6] has as its target T3, human glucagon-like peptide 1 receptor. Nature of the assay: competition of I-125 GLP-1, SPA, hGLP-1R 293HEK membranes; Ki by Cheng-Prusoff. Here is the method: The hGLP-1R cDNA is subcloned into the expression plasmid phD (Trans-activated expression of fully gamma-carboxylated recombinant human protein C, an antithrombotic factor. Grinnell, B. W., Berg, D. T., Walls, J. and Yan, S. B. Bio/Technology 5: 1189-1192, 1987). This plasmid DNA is transfected into 293HEK cells and selected with 200 μg/mL Hygromycin.
The binding buffer contains 25 mM HEPES, pH 7.4, 2.5 mM CaCl₂, 1 mM MgCl₂, 0.1% fatty acid free BSA, 0.003% Tween20, and Roche Complete™ Inhibitors without EDTA. […] The peptide analog is dissolved in 100% DMSO and serially diluted in 100% DMSO. Next, 10 μL diluted compounds of the present invention or 100% DMSO are transferred into Corning® 3632 clear bottom assay plates containing 40 μL assay binding buffer or cold glucagon (NSB at 1 μM final). […] Plates are read with a PerkinElmer Life and Analytical Sciences Trilux MicroBeta® scintillation counter after 12 hours of settling time at room temperature.
as §1

Another assay deals with human glucagon receptor (human, UniProt P47871 26-477). Put plainly: cell-based or functional assay.
Assay [7] addresses T3, human glucagon-like peptide 1 receptor. Nature of the assay: ratio of Ki on hGLP-1R to Ki on hGIP-R (reference), radioligand competition.
Assay [8] has the same target. Put plainly: Ki ratio hGLP-1R/hGIP-R normalized by 4.53 (native GLP-1/GIP), radioligand competition. For orientation: Displacement assays read how much labelled ligand stays bound in the presence of the test substance.

human glucagon receptor, sequence (P47871 26-477): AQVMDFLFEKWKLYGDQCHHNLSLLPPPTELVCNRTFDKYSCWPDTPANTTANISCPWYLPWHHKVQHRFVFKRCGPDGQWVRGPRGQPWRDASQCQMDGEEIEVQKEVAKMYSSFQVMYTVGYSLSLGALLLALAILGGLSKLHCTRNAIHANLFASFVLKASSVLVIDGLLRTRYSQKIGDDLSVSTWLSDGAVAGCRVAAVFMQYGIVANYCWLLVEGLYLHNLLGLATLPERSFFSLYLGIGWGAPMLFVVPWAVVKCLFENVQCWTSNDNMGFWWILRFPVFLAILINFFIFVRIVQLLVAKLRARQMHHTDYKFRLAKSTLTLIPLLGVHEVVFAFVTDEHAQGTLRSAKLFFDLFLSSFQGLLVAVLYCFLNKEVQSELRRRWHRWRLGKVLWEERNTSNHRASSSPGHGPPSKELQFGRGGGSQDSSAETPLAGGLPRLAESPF

In [1], “human GIP(1-42)NH2 (from UniProt P09681 52-93) (ligand)” displayed an Emax, % (intracellular cAMP) of 100%.

Regarding “C18-acylated human GLP-2 control (from UniProt P01275 146-178) (peptide)”, in the assay with human GLP-2 receptor, the Rel EC50 (intracellular cAMP) amounted to 1.86 nM.

B1: Example 3 (peptide)
peptide: YXEGTFTSDYSIXLDKIAQKAFVQWLIAGGPSSGAPPPS
modifications: Aib at positions 2 and 13; K at position 20 conjugated at the epsilon-amino group with ([2-(2-Amino-ethoxy)-ethoxy]-acetyl)2-(γGlu)1-CO-(CH2)16-CO2H; C-terminal primary amide
notes: Synthetic acylated peptide, trifluoroacetate salt
As for B1, the “EC50 (intracellular cAMP)” value stood at 3.15 nM in [2] and 33.9 nM in assay [3]. Besides, the “Emax, % (intracellular cAMP)” value amounted to 106% in [2] and 96.2% in assay [3]. The “Average EC50, cAMP in GLUTag cells” value in assay [4] was found to be 1610 nM. Also, the “Rel EC50 (intracellular cAMP)” value with human GLP-2 receptor is 199 nM. Also, the Ki came to 26.7 nM in assay [5] and 427 nM in [6].

B2: Example 5 (peptide)
peptide: B1 peptide
modifications: Aib at positions 2 and 13; K at position 20 conjugated at the epsilon-amino group with ([2-(2-Amino-ethoxy)-ethoxy]-acetyl)2-(γGlu)2-CO-(CH2)18-CO2H; C-terminal primary amide
notes: as for B1
For the molecule B2, the “EC50 (intracellular cAMP)” value in assay [2] turned out to be 8.76 nM. In addition, the “Emax, % (intracellular cAMP)” value in assay [2] and in assay [3] was 105% each time. Besides, the Ki in assay [5] turned out to be 17.8 nM; in assay [6], 158 nM.

B3: Example 2 (peptide)
peptide: B1 peptide with F22X
modifications: Aib at positions 2 and 13; K at position 20 conjugated at the epsilon-amino group with ([2-(2-Amino-ethoxy)-ethoxy]-acetyl)2-(γGlu)2-CO-(CH2)18-CO2H; 1-Nal at position 22; C-terminal primary amide
notes: as for B1
As to B3, the “EC50 (intracellular cAMP)” value in assay [2] was 17.5 nM; in [3], 75.7 nM; with human glucagon receptor it was over 1000 nM. Besides, the “Emax, % (intracellular cAMP)” value in assay [2] worked out at 94.7%; in assay [3], 98.2%. Besides, in assay [4], the “Average EC50, cAMP in GLUTag cells” value was 2920 nM. In addition, in the assay with human GLP-2 receptor, the “Rel EC50 (intracellular cAMP)” value was determined as 1610 nM. For the same molecule, the inhibitory constant (Ki) in [5] came to 63.9 nM; in assay [6], 344 nM. Further, the “Absolute ratio of hGLP-1R/hGIP-R” value in [7] was 5.4. Also, the “Molar ratio of hGLP-1R/hGIP-R” value in [8] came out at 1.19.

B4: Example 8 (peptide)
peptide: B1 peptide with F22X
modifications: Aib at positions 2 and 13; K at position 20 conjugated at the epsilon-amino group with ([2-(2-Amino-ethoxy)-ethoxy]-acetyl)2-(γGlu)1-CO-(CH2)18-CO2H; 1-Nal at position 22; C-terminal primary amide
notes: as for B1
On to B4, for which the “EC50 (intracellular cAMP)” value in assay [2] is 21.1 nM; in assay [3], 57.9 nM; with human glucagon receptor, over 1000 nM. The “Emax, % (intracellular cAMP)” value in assay [2] was determined as 108%; in assay [3], 88.4%. In addition, the figures for the Ki in assay [5] and in [6] were 67.5 nM and 307 nM, respectively. Besides, the “Absolute ratio of hGLP-1R/hGIP-R” value in assay [7] is 4.5. In [8], the “Molar ratio of hGLP-1R/hGIP-R” value was 0.99.

B5: Example 4 (peptide)
peptide: B1 peptide
modifications: Aib at positions 2 and 13; K at position 20 conjugated at the epsilon-amino group with ([2-(2-Amino-ethoxy)-ethoxy]-acetyl)2-(γGlu)2-CO-(CH2)16-CO2H; C-terminal primary amide
notes: as for B1
B5: the “EC50 (intracellular cAMP)” value in [2] is 3.76 nM. Further, the “Emax, % (intracellular cAMP)” value in assay [3] is 100%. Besides, the “Average EC50, cAMP in GLUTag cells” value in [4] amounted to 2190 nM. For the same molecule, the “Rel EC50 (intracellular cAMP)” value with human GLP-2 receptor stood at 405 nM. The Ki was 40.7 nM in assay [5] and 714 nM in assay [6].

B6: Example 1 (peptide)
peptide: B1 peptide
modifications: Aib at positions 2 and 13; K at position 20 conjugated at the epsilon-amino group with ([2-(2-Amino-ethoxy)-ethoxy]-acetyl)2-(γGlu)1-CO-(CH2)18-CO2H; C-terminal primary amide
On to B6, for which the results for the “Emax, % (intracellular cAMP)” value in assay [2] and in [3] were 97.9% and 85.2%, respectively. Moreover, the “Average EC50, cAMP in GLUTag cells” value in assay [4] worked out at 1490 nM.

B7: Example 6 (peptide)
peptide: B1 peptide with F22X
modifications: Aib at positions 2 and 13; K at position 20 conjugated at the epsilon-amino group with ([2-(2-Amino-ethoxy)-ethoxy]-acetyl)2-(γGlu)1-CO-(CH2)16-CO2H; 1-Nal at position 22; C-terminal primary amide
notes: as for B1
For the molecule B7, the “EC50 (intracellular cAMP)” value in [2] is 4.4 nM; in assay [3] it was 28.4 nM; with human glucagon receptor, over 1000 nM. The “Emax, % (intracellular cAMP)” value in assay [2] amounted to 106%; in assay [3] it was 104%. The values for the Ki in [5] and in [6] were 44.2 nM and 365 nM, respectively. For the same molecule, in assay [7], the “Absolute ratio of hGLP-1R/hGIP-R” value came out at 8.3. Also, in assay [8], the “Molar ratio of hGLP-1R/hGIP-R” value was 1.83.

B8: Example 7 (peptide)
peptide: B1 peptide with F22X
modifications: Aib at positions 2 and 13; K at position 20 conjugated at the epsilon-amino group with ([2-(2-Amino-ethoxy)-ethoxy]-acetyl)2-(γGlu)2-CO-(CH2)16-CO2H; 1-Nal at position 22; C-terminal primary amide
notes: as for B1
For the molecule B8, the “EC50 (intracellular cAMP)” value is 8.07 nM in assay [2], 35.5 nM in [3] and over 1000 nM in the assay with human glucagon receptor. The “Emax, % (intracellular cAMP)” value in [2] was found to be 106%; in [3], 97.2%. In assay [4], the “Average EC50, cAMP in GLUTag cells” value is 2750 nM. Besides, the “Rel EC50 (intracellular cAMP)” value with human GLP-2 receptor is 1800 nM. Moreover, the Ki in assay [5] came out at 46.1 nM; in assay [6], 352 nM. For the same molecule, the “Absolute ratio of hGLP-1R/hGIP-R” value in [7] is 7.6. Further, in [8], the “Molar ratio of hGLP-1R/hGIP-R” value worked out at 1.68.
